According to US20060110800A1 (ZymoGenetics, published 2006):

Target: T1, 125I-IL-13 (UniProt P35225 35-146, limits assumed, 125I label (site not stated))
T1 construct: also called labeled IL-13; interleukin 13
Assay: saturation binding analysis of 125I-IL-13 on BHK cells expressing Zcytor2
Method: The binding of ¹²⁵I-IL-13 to wild-type and Zcytor2-transfected BHK, TF-1, and BaF3 cells was determined. BHK cells were assayed in 6-well culture plates. TF-1 and BaF3 cells were assayed in microcentrifuge tubes. Cells were combined with 500 μl of either solution A (15 ml of binding buffer [RPMI containing 20 mM Tris pH7.4, 0.05% NaN₃, and 3 mg/ml BSA] plus 263 μl of ¹²⁵I-IL-13 [5.7×10⁷ cpm/ml]) or solution B (solution A containing 15 μl of cold 25 μg/ml IL-13). After a 2-hour incubation, cells were washed three times with 500 μl binding buffer and lysed in 500 μl of 400 mM NaOH. Lysates were transferred to tubes for gamma counting.

T1 sequence (P35225 35-146 limits assumed): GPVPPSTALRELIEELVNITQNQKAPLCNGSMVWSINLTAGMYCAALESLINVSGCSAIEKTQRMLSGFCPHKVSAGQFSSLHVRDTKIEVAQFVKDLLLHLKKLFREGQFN

Kd: 0.59 nM
B1: human Zcytor2 receptor expressed on transfected BHK cells (receptor)
chain: SSDTEIKVNPPQDFEIVDPGYLGYLYLQWQPPLSLDHFKEYTVEYELKYRNIGSETWKTIITKNLHYKDGFDLNKGIEAKIHTLLPWQCTNGSEVQSSWAETTYWISPQGIPETKVQDMDCVYYNWQYLLCSWKPGIGVLLDTNYNLFYWYEGLDLALQCVDYIKADGQNIGCRFPYLEASDYKDFYICVNGSSENKPIRSSYFTFQLQNIVKPLPPVYLTFTRESSCEIKLKWGIPLGPIPARCFDYEIEIREDDTTLVTATVENETYTLKTTNETRQLCFVVRSKVNIYCSDDGIWSEWSDKQCWEGEDLSKKTLLRFWLPFGFILILVIFVTGLLLRKPNTYPKMIPEFFCDT
notes: also called BHK/Zcytor2 cells; Zcytor2-transfected BHK
